The values below are quoted from earlier work in publication PMC13142048.

What is called Kd is the concentration at which binding is half-saturated.

Series [1] addresses CD96 (TACTILE) (Homo sapiens) (UniProt P40200).
Series [2] deals with CD226 (DNAM-1) (Homo sapiens) (UniProt Q15762).
Series [3] addresses TIGIT (Homo sapiens) (UniProt Q495A1).
Sequence of UniProt Q495A1 (Q495A1 22-141): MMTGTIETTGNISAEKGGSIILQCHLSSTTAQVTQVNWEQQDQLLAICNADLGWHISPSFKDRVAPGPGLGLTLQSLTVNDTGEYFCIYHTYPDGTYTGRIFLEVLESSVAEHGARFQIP

Sequence of UniProt Q15762 (Q15762 19-254): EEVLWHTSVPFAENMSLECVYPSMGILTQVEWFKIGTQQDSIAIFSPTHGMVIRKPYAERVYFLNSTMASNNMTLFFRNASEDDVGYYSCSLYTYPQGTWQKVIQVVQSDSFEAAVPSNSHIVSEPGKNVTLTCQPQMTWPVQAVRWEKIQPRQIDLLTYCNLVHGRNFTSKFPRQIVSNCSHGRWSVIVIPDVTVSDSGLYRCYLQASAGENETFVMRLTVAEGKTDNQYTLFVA
Sequence of UniProt P40200 (P40200 22-519): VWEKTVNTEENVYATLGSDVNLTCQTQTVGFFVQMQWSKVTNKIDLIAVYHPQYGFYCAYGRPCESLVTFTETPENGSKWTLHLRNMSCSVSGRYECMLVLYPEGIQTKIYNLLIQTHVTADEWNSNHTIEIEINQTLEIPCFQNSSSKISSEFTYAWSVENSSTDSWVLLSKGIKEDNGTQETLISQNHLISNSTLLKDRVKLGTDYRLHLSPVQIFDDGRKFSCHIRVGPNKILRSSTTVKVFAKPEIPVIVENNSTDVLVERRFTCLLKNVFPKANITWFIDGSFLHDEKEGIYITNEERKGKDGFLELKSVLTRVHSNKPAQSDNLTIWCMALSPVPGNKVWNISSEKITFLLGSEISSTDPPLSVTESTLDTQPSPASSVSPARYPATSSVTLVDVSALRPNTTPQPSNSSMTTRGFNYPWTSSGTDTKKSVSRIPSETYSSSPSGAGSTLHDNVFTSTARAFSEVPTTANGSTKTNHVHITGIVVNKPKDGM

Regarding CD155 (from UniProt P15151), the dissociation constant (Kd) in series [1] is 37.6 nM; in series [2] it was 119 nM; in series [3] it was 3.15 nM.
